Drawing on PMC2196413 (The Journal of Cell Biology, 2001), this text covers Kd for two molecules.

This experiment addresses T1, GST fusion protein with the cytoplasmic domain of JAM (human, UniProt Q9Y624 260-299).
T1 chain (looked up): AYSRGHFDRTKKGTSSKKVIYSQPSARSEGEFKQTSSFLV
As to the kind of experiment: pull-down.

B1: MBP fusion protein with NH2-terminal half of ZO-1 (domain or fragment)
chain: MSARAAAAKSTAMEETAIWEQHTVTLHRAPGFGFGIAISGGRDNPHFQSGETSIVISDVLKGGPAEGQLQENDRVAMVNGVSMDNVEHAFAVQQLRKSGKNAKITIRRKKKVQIPVSHPDPEPVSDNEDDSYDEEVHDPRAGRGALANRRSEKSWARDRSASRERSLSPRSDRRSVASSQPAKPTKVTLVKSRKNEEYGLRLASHIFVKEISQDSLAARDGNIQEGDVVLKINGTVTENMSLTDAKTLIERSKGKLKMVVQRDERATLLNVPDLSDSIHSANASERDDISEIQSLASDHSGRSHDRPPRRSQSRSPDQRSEPSDHSTQSPQQPSNGSLRSREEERMSKPGAISTPVKHVDDHPPKAVEEVTVEKNEKQTPTLPEPKPVYAQVGQPDVDLPVSPSDGALPNSAHEDGILRPSMKLVKFRKGDSVGLRLAGGNDVGIFVAGVLEDSPAAKEGLEEGDQILRVNNVDFTNIIREEAVLFLLDLPKGEEVTILAQKKKDVYRRIVESDVGDSFYIRTHFEYEKESPYGLSFNKGEVFRVVDTLYNGKLGSWLAIRIGKNHKEVERGIIPNKNRAEQLASVQYTLPKTAGGDRADFWRFRGLRSSKRNLRKSREDLSAQPVQTKFPAYERVVLREAGFLRPVTIFGPIADVAREKLAREEPDIYQIAKSEPRDAGTDHRSSGIIRLHTIKQIIDQDKHALLDVTPNAVDRLNYAQWYPIVVFLNPDSKQGVKTMRMRLCPESRKSARKLYERSHKLRKNNHHLFTTTINLNSMNDGWYGALKEAIQQQQNQLVWVSEGKADGATSDDLDLHDDRLSYLSAPGSEYSMYSTDSRHTSDYEDTDTEGGAYTDQELDETL
Molecule B1 showed a Kd of 110 nM.

B2: MBP-PDZ1/2/3–PAR-3 (domain or fragment)
chain: MVKLVQVPNDGGPLGIHVVPFSARGGRTLGLLVKRLEKGGKAEQENLFHENDCIVRINDGDLRNRRFEQAQHMFRQAMRARVIWFHVVPAANKEQYEQLSQREMNNYSPGRFSPDSHCVANRSVANNAPQALPRAPRLSQPPEQLDAHPRLPHSAHASTKPPTAPALAPPNVLSTSVGSVYNTKRVGKRLNIQLKKGTEGLGFSITSRDVTIGGSAPIYVKNILPRGAAIQDGRLKAGDRLIEVNGVDLAGKSQEEVVSLLRSTKMEGTVSLLVFRQEEAFHPREMNAEPSQMQSPKETKAEDEDIVLTPDGTREFLTFEVPLNDSGSAGLGVSVKGNRSKENHADLGIFVKSIINGGAASKDGRLRVNDQLIAVNGESLLGKANQEAMETLRRSMSTEGNKRGMIQ
Turning to B2, the Kd worked out at 75 nM.

Usually Kd stands for the constant that tells how readily two partners part at equilibrium.
